{"source": "the nanobody polyreactivity screen of Harvey et al. (2022)", "data": [{"test": "yeast display, Sf9 membrane polyspecificity reagent, FACS + sequencing; frameworks hold sequencing errors", "procedure,_shortened": "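Galactose-induced (36–48 hours) yeast carrying a synthetic nanobody display library were exposed to 10% biotinylated, detergent-solubilized Sf9 membrane reagent at 4 °C for 1 hour. FACS followed streptavidin microbead enrichment, using low and high (top ~1%) gates for expression (anti-HA) and reagent binding (streptavidin). Colony PCR, MiSeq 2 × 250 sequencing and CDR-length filtering followed. Labels for polyreactivity reflect the gate of origin.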", "values": [{"sequence": "QVQLVESGGGLVQAGGSLRLSCAASGFTLTRNAMGWYRQAPGKERELVAAISWSGGTTYYADSVKGRFTISRDNAKNTVYLQMNSLKPEDTADYYCNTASWRAQYYYWGQGTQVTVSS", "polyreactivity (PSR sort gate)": "high polyreactivity"}, {"sequence": "PVQLVESGGGLVQAGGSLRVSCAASGSIFYKNAMGWYRQAPGKEREMVAAITSSGGRTYYADSVKGRFTISRDNPKNTVYLQMNSLKPEDTAVFYCAAVYGYDKYDSWGLGTQVTVSS", "polyreactivity (PSR sort gate)": "low polyreactivity"}, {"sequence": "QVQLVESGGGLVQAGGRLRLSCAASGFNFRYYAMGWYRQAPGKERELVAASSRSGGGTYYADSVKGRFTISRDTAQNTVYLQMNSLTPEDTAVYYCAADPSLGRGYDYWGQGTQVTVSS", "polyreactivity (PSR sort gate)": "high polyreactivity"}, {"sequence": "QVQLVESGGGLVQAGGSLRLSCAASGSIFDNNAMGWYRQAPGKERELVAVITRSGGSTHYADSVKGRFTISRDNAKNTVYLQMNSLKPEDTAVYYCATDGLFYVDGSWTLGYWGQGTQVTVSS", "polyreactivity (PSR sort gate)": "low polyreactivity"}, {"sequence": "QVQLVESGGGLVQAGGSLRLSCAASGITFGRNTMGWSRQAPGKERELVAAIDSGGNTYADSVKGRFTISRDNAKNTVYLQMNSLKPEDTAVYYCAVDGGEFSSYGYWGQGTQVTVSS", "polyreactivity (PSR sort gate)": "low polyreactivity"}, {"sequence": "QVQLVESGGGLVQAGGSLRLSCAASGGTFSYYAMGWYRQAPGKERELVAAISGNGDTTYYADSVKGRFTSSRDNAKNTVYLQMNSLKPEYTAVYYCNVYVSAGEEVEYWGQGTQVTVSS", "polyreactivity (PSR sort gate)": "low polyreactivity"}, {"sequence": "QVQLVESGGGLVQAGGSLRLSSAASGSIFGYAMGWYRQAPGKERELVARIDWSGGRTYYADSVKGRFTISRDNAKNTVYLQMYSLKPDDTAVYYCYARRYLYRGNIVDYWGQGTQVTVSS", "polyreactivity (PSR sort gate)": "high polyreactivity"}, {"sequence": "QVQLVESGGGLVQAGGSLRLSCAASGSTFYVNAMGWYRQTPGKEREFVAAITWNSGSTYYADSVKGRFTISRDNEKNTVYLQMNSLKPEDTAVYYCAAVLSVRVYGYDYWGQGTQVTVSS", "polyreactivity (PSR sort gate)": "low polyreactivity"}, {"sequence": "QVQLVESGGGLVQAGGSLRLSCAASGRIFGWYAMGWYRQAPGKERELVAAISSADSTNYADSVKGRFTIARDNAKNTVYLQMNSLKPEDTAVYYCNAEGLPGNVVYGYYYWGQGTQLTVSS", "polyreactivity (PSR sort gate)": "low polyreactivity"}, {"sequence": "QVQLVESGGGLDQAGGSLRLSCAASGRTFYSYAMGWYRQAPGKERELVAAITSGGRTKYADSVKGRFTISRDNAKNTVYLQMNSLKAEDTAVYYCAADRVSYYTTPYDYWGQGTQVTVSS", "polyreactivity (PSR sort gate)": "high polyreactivity"}, {"sequence": "QVQLVESGGRLVQAGGSLRLSCAPSGRTLGRYTMGWYRQAPGKERELVAGISSGGSTNYADSVKGRFTISRDNAKNTVYLQMNSLKPEDTAVYYCNSRGYSYGARYYYWGQGTQVTLSS", "polyreactivity (PSR sort gate)": "high polyreactivity"}, {"sequence": "QVQLVESGVGLVQAGGSLRLSCAASGSTLPYYAMGWYRQAHGKERQMVAAITTSGGDTYSADSVKGRFTISRDNAKNTVYLQMNSLKPEDTAVYYCAISYSARSTVRKLFYFAYDYWGQGTQVTVSS", "polyreactivity (PSR sort gate)": "low polyreactivity"}, {"sequence": "QVQRVESGGGLVQAGGSLRLSCAASGSIFVFYAMGWYRQAPGKERELVATISSVGRTNYADSVKGRFTISRDNAKNTVYLQMNSLKPEDTAVYYCAARRFRGSYYWGQGTQVTVSS", "polyreactivity (PSR sort gate)": "high polyreactivity"}, {"sequence": "QVQLVESGGGLVQAGGSLRLSCAASGRIFRVYAMGWYRQAPGKERELVAAISSGGSTNYADSVKGRFTISRDNAKNTVYLQMNSLKPEDTAVYYCAATVRGVGYRYYYWGQGTQVTVSS", "polyreactivity (PSR sort gate)": "high polyreactivity"}, {"sequence": "QVQLVESGGGLVQAGGSLRLSCAASGITFAWYAMGWYRQAPGKERELVAAISRSGGSTYYADSVKGRFTISRDNAKNTVYLQMNSLKPEDTAVYYCADRASPRFNYWGQGTQVTVSS", "polyreactivity (PSR sort gate)": "high polyreactivity"}, {"sequence": "QVQLVESGGGLVQAGGSLRLSCAASGRIFQGYVMGWYRQAPGKERELVAVISRRGGITNYADSVKGRFTISRDNAKNTVYLQMISLKPEDTAVYYCNDVTRVYNNGQYGYWGQGTQVTVSS", "polyreactivity (PSR sort gate)": "high polyreactivity"}, {"sequence": "QVQLVESGGGLVQAGGSLRLSCAASRFIFGKYAMGWYRQAPGKEREFVAAITRSGGSTYYADSVKGRFTISRDNAKNTVYLQMNSLKPEDTAVYYCAAYSLKYYNGYDYWGQGTQVTVSS", "polyreactivity (PSR sort gate)": "high polyreactivity"}, {"sequence": "QVQLVESGGGLVQAGGSLRISCAASAHIFDYNAMGWYRQAPGKERELVAAITSGGTTTYADSVKGRFTISRDNAKNTVDLQMNSLKPEDTAVYYCNTYGQTDTYWRYYYWGQGTQVTVSS", "polyreactivity (PSR sort gate)": "high polyreactivity"}, {"sequence": "QVQLVESGGGLVQAGGSLRLSCAASGSTFVVNAMGWYRQAPGKERELVAAIAGGGSTNYADSVKGRFTISRDNAKNTVYLQMNRLKPEDTAVYYCAKDLTQSYEYDYWGQGTQVTVSS", "polyreactivity (PSR sort gate)": "low polyreactivity"}, {"sequence": "QVQLVESGGGLVQAVGSLRLSCAASGSTFDHYAMGWYRQAPGKERELVAAISYSGSTTDYADSVKGRFTISRDNAMNTVYLQMISLKPEDTAVYYCAASGDVIQSPMDYWGQGTQVTVSS", "polyreactivity (PSR sort gate)": "low polyreactivity"}, {"sequence": "QVHLVESGGGLVQAGGTLRLSCAASGSIFATYGMGSYRQAPGKERELVAAITSSGGSTYYADSVKGRFTISRDHAKNTVYLQMNSLKPEDTAVYYFAADSYIIWYGSVVSYGEDSWGQGTQVTVSS", "polyreactivity (PSR sort gate)": "low polyreactivity"}, {"sequence": "LVQLVESGGGLVQAGGSLRLSCAASGRTFDTYVMGWYSQAPGKERELVAAITTSGTSTYADSVKGRFTISRDNAKNTVYLQMNSLKPEDTAVYYCAADGPVYYSYVDWISFNEEYWGQGTQVTVSS", "polyreactivity (PSR sort gate)": "low polyreactivity"}, {"sequence": "QVQLVESGGGLVQAGGSLRLSCAASGFTSNYYAMGGYRQAAGKERELVAAITTGGSTHYADSVQGRFTISRDNAKNTVYVQMNSLKPEDTAVYYCAADLKDTRLFPWFCEYDYWGQGTQVTVSS", "polyreactivity (PSR sort gate)": "low polyreactivity"}, {"sequence": "QVQLVESGGGLVQAGGSLRLSCAASGSIFRSNAMGWYRQAPGQERELVAAISRSGGRTYYADSVKGRFTISRDNAKNTVYLQMNSLKPEDTAVYYCAAQVVRSLKYEYWGQGTQLTVSS", "polyreactivity (PSR sort gate)": "high polyreactivity"}, {"sequence": "QVQLVESGGGLVQAGGSLRLSCAASGRTFRKYAMGWYRQAPGKEMELVAGITSIGGRTYYADSVKGRFTISRDNAKNTVYLQMNSLKPEDTAVYYCAADSIGRKNWSLHSNYWGQGTQVTVSS", "polyreactivity (PSR sort gate)": "low polyreactivity"}, {"sequence": "QVQLVESGGGLVQAGGSLRLICAASGSIFCYAMGWYRQAPGKERELVAGISRGGSTYYADSVKGRFTISRDNAKNTGYLKMNSLKPEDTAVYYCNTAGYYGTPYNYWGQGTQVTVSS", "polyreactivity (PSR sort gate)": "low polyreactivity"}, {"sequence": "QVQLVESGGGLVQAGGSLRLSCAASGSIFYHNAMGRYRQAPGKERELVAAITGSGGSTYYADAVKGRFTISRDKAKNTVYFQMNSLKPEDTAVYDCAADGYTKWWISWGYDYWGQGTQVTVSS", "polyreactivity (PSR sort gate)": "low polyreactivity"}, {"sequence": "QDQHVESGVGLVQEGGSLRLSCAASGIIIDEYAMGLYRQAPGKERELVAAISSRGTNTYYADSVKGRFTISRDNAKNTVYLQMNSLKPEDTAVYYCAARRPPVTRHFGYWGQGTQVTVSS", "polyreactivity (PSR sort gate)": "high polyreactivity"}, {"sequence": "QVQLVESGGGLVQAGGSLRLSCAASGSIFKYYAMGWYIQAPGKERELVAAITYSGGSTYYADSVKGRFTISRDNAKNTVYLQMNSLKPEDTAVYYCNKVYKSYYWGGYEWGQATQVTVSS", "polyreactivity (PSR sort gate)": "high polyreactivity"}, {"sequence": "QVQLVESGGGLVQAGGSLRLSSAASGRTFQYYAMGWYRQAPGKERELVAAITSGGSTYYADSVKGRFTISRDNAKNTVSLQMNSLKPEDTAVYYCAATFYYSGHDDYWGQGTQVTVSS", "polyreactivity (PSR sort gate)": "low polyreactivity"}, {"sequence": "QVQLVESGGGLVQAGGSLRLSCAASGIIFWRYAMGWYRQAPGKERELVAAISSSGSTYYADSVKGRFTISRDNAKNTVYLQMNSLKPEDTAVYYCAAYSYPAGEYDYWGQGTQVTVSS", "polyreactivity (PSR sort gate)": "low polyreactivity"}, {"sequence": "QVQLVESGGGLVQAGGSLRFSCAASGIIFQRNDMGLYRQAPGKERELVANIRDGGITYADSVKGRFTLSRDNAKNTFYLQMNSLKPEDTAVYYCAADYHTPSSFAPIELYDYWGQGTQVTVSS", "polyreactivity (PSR sort gate)": "low polyreactivity"}]}]}
